What was measured:
[1] = biological target: ポドプラニン (ポドプラニン提示CHO細胞, 種の記載なし); assay: binding to podoplanin-displaying CHO cells; reference clone 1 scFv
[2] = biological target: ポドプラニン (ポドプラニン提示CHO細胞, 種の記載なし); assay: flow cytometry; cells and species not named at this place

fold increase of affinity against the scFv (clone 1) [1]: 100 fold | Kd [2]: 1.7 nM
B1: clone 1から作製したdiabody (protein)
chain: EVQLKESGGGLVQSGGSLRLSCAASGFSLTDYGVNWVRQAPGKGLEWVGVIWGGGNTYYNSALKSRFTISKDNSKNTLYLQMNSLRAEDTAVYYCAKHRGAWGQGTLVTVSAGGGGSDIVMTQSPSTLAVSLGEKATINCKSSKSLLNSGNQKNYLIWYQQKPGQPPKLLIYGASTRESGVPDRFSGSVSGTDFTLTISSLQAEDLAVYYCQNDHTYPLTFGQGTKVEIKRTV

From patent JP2020002075A
